Consider 14 sequences from the DeepSol protein solubility set.

A short description of the data set: soluble on expression in E. coli; label from the status in PepcDB or PDB records.
Take “MSLTNDIYDKGLAIRKEVVGVDSVERSLRDATEYTAPFQALATEYCWGRVWGRDELDRRTRSIANIAMMIALNRAPELRIHIKGALTNGVPRKEIAEVILQSAVYCGIPAAGDAFRQMQSVFDEADAAAACAPASPAARKSIAVIGLGAMGYPMAAQLVRAGHDVRPYDANPAVLARFAEEFNTGVAPIASCVAGADFVVTVLPDSTVVTRVLDGDNGSGGVAARIKPGATLIDMTSGDPATTRALAARLGEAGVRMIDAPVSGGFVKARTGELAIMVGGEADTVAAAMDILQAMGTSIAHVGPIGAGHTVKALNNYISAIGWLAVIEAIHTGKRFGLDVATMNRIFNQSSGRNSSTANKVEQAVLSGTYHTGFSLALMAKDVGIAVGLARQMGVDAEVGTLAHRIIQTAFDQSAEKDLDNSRLFDILYSEGHHHHHH”: the “soluble on expression in E. coli” value was “not soluble”.
Consider “MSLTNVAEDQLTAQAVAPPTEASAALEPALETPESPVETLKTSISASRRVRARLARRMTAQRSTTNPVLEPLVAVHREIYPKADLSILQRAYEVADQRHASQLRQSGDPYITHPLAVANILAELGMDTTTLVAALLHDTVEDTGYTLEALTEEFGEEVGHLVDGVTKLDRVVLGSAAEGETIRKMITAMARDPRVLVIKVADRLHNMRTMRFLPPEKQARKARETLEVIAPLAHRLGMASVKWELEDLSFAILHPKKYEEIVRLVAGRAPSRDTYLAKVRAEIVNTLTASKIKATVEGRPKHYWSIYQKMIVKGRDFDDIHDLVGVRILCDEIRDCYAAVGVVHSLWQPMAGRFKDYIAQPRYGVYQSLHTTVVGPEGKPLEVQIRTRDMHRTAEYGIAAHWRYKEAKGRNGVLHPHAAAEIDDMAWMRQLLDWQREAADPGEFLESLRYDLAVQEIFVFTPKGDVITLPTGSTPVDFAYAVHTEVGHRCIGARVNGRLVALERKLENGEVVEVFTSKAPNAGPSRDWQQFVVSPRAKTKIRQWFAKERREEALETGKDAMAREVRRGGLPLQRLVNGESMAAVARELHYADVSALYTAIGEGHVSAKHVVQRLLAELGGIDQAEEELAERSTPATMPRRPRSTDDVGVSVPGAPGVLTKLAKCCTPVPGDVIMGFVTRGGGVSVHRTDCTNAASLQQQAERIIEVLWAPSPSSVFLVAIQVEALDRHRLLSDVTRALADEKVNILSASVTTSGDRVAISRFTFEMGDPKHLGHLLNAVRNVEGVYDVYRVTSEGHHHHHH”, for which the “soluble on expression in E. coli” value is recorded as “not soluble”.
On to “MSLTPPRSLLHALKPFLEAGADKEALVFGAHRISFGDMAGHAAALAEVLRSKGVQKGDRVAALFPPRPEAILSLLACWLIGATWMGINPRYQRREQAQILADAGVKVLMSMTRIGKRDLEDDLASHETDLGFSVLRFAPAFAPAALPEKLPYDEVLRRWREATETLEPDSPSVVIYTSGSTGKPKGALITHAGLAFRSHTLHIDRFNLPAPTQLIDLPVNHIGALASGIGVAMASGGKMILSEQFDPGVTLRTAFAEKLAIISGVPAMLARLVEHPDFATSDLSSVKAISWGAGPINEAVLRKLLNATDALFSQQYGMTESNGPIVFTPPTRDVEVLLNTTGKPDPRLELRIADESGQPLPDGEEGEVQIRHPHPFAGYLGNAEASAAAFTADGFLHTGDLAMVREDGYLVFCGRSKEMYKSGGFNVYPREIEIALEAHPAIRAAAVLGVDDEQWGQVGHAFVELASPLTSDDITGWCKARLADFKVPKRVSVIDAMPRTPVDKVDRMQLAELAARGEGHHHHHH”, for which the “soluble on expression in E. coli” value was “soluble”.
The entry for “MSLTPSVSTKELEGGLLIVDEMSMVDTWLANTLFKAIPTNMQVILVGDKDQLPSVGPGQVLHDLLEIEQIPKMELNQIYRQGDGSSIIPLAHEIKEGRLPKDFTKNQKDRSYFRSDAYQIEPLISKIVEKAKNKGFRAQDIQVLAPMYRGPAGIDALNKMMQEIFNPGKPGKKEVHWNDTVYRIGDKVLQLVNTPELNVFNGDMGEITGIILAKDSEDKVDELVIQFDANEVTYKRNEWNKITLSYCCSIHKSQGSEFKMVILPMVHQYQRMLQRNLLYTAVTRSKELLILLGEEQAYVTCVANESASRMTTLKSRIMDNDKMNEGHHHHHH” is “not soluble”; for “MSLTPTFKDKIARAPKAELHIHIEGSLEPELIFALAQRNGVKLAYDSIDALRAAYAFTDLQSFLDIYYAGASVLLTEQDFYDMTAAYCERALADNVVHTELFFDPQTHTERGVSIETVVAGIERALADAEQRGLSSKLILCFLRHLSEEDALATFESALPLFERYRHRLIGVGLDSSELGHPPTKFARVFEKARALGLKLVAHAGEEGPPAYIYEALDVLKVDRIDHGVRSIEDEALVERLAKTRTALTVCPLSNLKLCVFDDMAKHTLKALLDRGVAVTINSDDPAYFGGYVNENYFATAEGLQLTDAEVHAVIRNGFEASFIEPAQRDALYARLDAYWQAAEGHHHHHH” it is “soluble”.
The entry for “MSLTRAQLEDMPQYQQVYSSINTWPSKKWYVGKGVHLSELLSLVGIKDDARLLKFTSQDGYTMTLTVKELLVDKRYYFPHFNDNKIGDGEGNIAGSSQGAELVEPIIALISVEGSNNPNYMNDLNTLVLMMGQRAVTEQTGNAFVKYLNKIEVLTSEVPKWDSPQANPGSGEVSAGTMIALSTARMDDDKIYYTTDGSTPNLNSPIYNWIAKRWWSARADILGTYNHPIGPINENTTIKAITIGPGKENSDVATFTYTVPVSKPASETSIVAPNEATNYPDQALEKPLQSEPKATLTDVQNHWAQKNINELIASGIAGGYPDSSFRPDNTITRAEFATMLVKAFNLQNQGGKVFADSEQHWAKEYISRATASGVVSGYDAENFGPDKLITREQMAVMISKAAKLVLKAEAMHFADSAGISEWAKEAVLAANQSGIVKGYPDNTIRPQGSATRAEAVTVIVNALTLKEGHHHHHH” is “not soluble”; for “MSLTRATKGFLSKSLPKASEATPGSQSSDYIPLVSLQLASGAFLLNEAFCTTIQIPMEKLKWTSPFSCLRMSLVTRRQDLKTQSPQDCTSLSSSPPSCDGISLKSEESSDQESNAMLEHMGKLWATVVALAWLEHSSANYIIEWELVAAKASSWVEKQKVPEGRTLSTLKNTARQLFVLLRHWDEKLEFNMLCYNPNYVEGHHHHHH” it is “not soluble”; for “MSLTRKKYTYKMRSYINASHAIRWEAGIGSEHPHTWEIICEIVSSNDHMIKFEDIEEVITETISGLSGKFLNTIAPFDKINPTLENLTNYLFDMITDSLKKINCKLIRIEVGESPTRFYCISLDEGHHHHHH” it is “soluble”.
The entry for “MSLTRRNDAIAVVVTEPQNRLFVDPFFDRHLRGIRQELVRQGAQLVLLLIEEPDDYPRVGNFLGGGHVDGALLFSLRGDDPLPEMVDRMGLPAVFGGRPVLSPEDRGHRYTYVDADNRGGAREAVRHLVAQGRERIATITGPLNQAAAVDRLDGYRDVLPDSAPDLIVEGDFTLRGGVDAMAELLARCPDLDAVFAASDLMACGALRVLKEHGRRVPEDVAVIGFDDLPPLVETTEPSLTTVHQDIEGMGRLMARLLFERIPATPLDDGDHSLHRVITPTRLILRKTAEGHHHHHH” is “not soluble”.
On to “MSLTTDWTTQVAAAAASVTAAEVDTARRALDYLCLAQLYLRDNVTLSTPLQPGHVKPAPAGHWGVCPPVNAVLAALGPYRRMPGTDVRVVHGGGHAGPSALAHAWITGALDTGEDAFGHTEVDLARLCAQFPRTRFGGEITPLIPGHDHLGGQLGPALAIAHGMGLDAPDRLVVAVIGDGECETGATAAAWLGARALIGTGTHGRVLPVILANGLRMGSASLLAALDPCDLARHLGGLGYEVITAGPSTDEITAAVARALTGLRPLQYGPSTVVVVTVDKGHGVPKTVAGQQIAQTPRVHKVPLRNPRDDNAEFVALERWLSGYRPQELFTGGAPTATVRRALAPAATGRVELHAPRGCIAAASAVADRVAGADFGAAITATLRELNTVYGLRVFSPDELASNRIELGAPDSGWTIEVLNEELCHAWAQGYQATGRRGVVVGYEAFAPITASLLAQQLLAHRLAAAAGRPPGPSLVYLLTSLGWHNTITHANPGLIDIAIGTADPSVHIYLPADATRTAAALTFAVRKLGRASLVVASKHPMPAHPHTTIDAELRDGYAVWPHIADDLDPEMVLVSIGDIAARELTRAATTITATRTATRLRYLHIHDLTSLGAPGRRDAAISAADFERLFPPGAAVLIATTCHPAAVHALLGERGAPRTVVVRGWANPPLPMSHDELLDHTGIAATALHEAALALLDSTTCDPLIRQGAREGHHHHHH”, for which the “soluble on expression in E. coli” value is on record as “soluble”.
With “MSLTVMSIQDNLTINEKKVLLALEELRSAVPDKLEEKSGLQIDAAMQAAFMLQEKELASVSEKVLERYSLTKEGEEYKKTGLPERQIIDALKNPVSLEELRSCFSPQTVGIATGWLVKKGWAKVENGIMVPSGEASEGKDEKALSAFAGKAKTLEELGADEGTVKDLLKRKLVVKHEEKFRTVSITDAGSELASQGLVLEEEIAQLTPELLKSGAWKEKKFRPYRLDITPKPLYGTKIHPYRRLIEQMRQIFLEMGFTEIKGGIIQSSFWNFDALFQPQDHPARDMQDTFHLGSTCQIPAEYSGKVAAMHENGGDIDSCGWGGIWDRELAGRNVLRTHTTSVTIKYLADNPEPPVKAFCIDRAYRRETIDPTHTPEFEQLEGVVMDKDMSFADLLGLLAEFYHRMGFEEVRFRPGYFPYTEPSVEPEVYVDGLGWVELGGAGVFRKEVTEPLGIKAPVLAWGLGVSRLAMLKLGLKDLRLLYQSDIDWLRKSEVCKEGHHHHHH”, the “soluble on expression in E. coli” value is “soluble”.
“MSLVAVRSAHLNPDQQFELETWIASLTQEGKTAAKLTAVYRDCEQLLAGNPQGPLLLWRGREMIEILITLSMDRPTLVAALLFPIATSGVLDNESLEEGYGREVVKLIHGVEEMAAIGQLNVTMHGSEASAQVDNVRRMLLAMVDDFRCVVIKLAERICNLREVKNEPDEVRRVAAKECANIYAPLANRLGIGQLKWEIEDYAFRYQQPDTYKQIAKQLSERRIVREQYIRDFVSDLRAEMKQSGINAEVSGRPKHIYSIWRKMQKKSLAFDELFDVRAVRIIADKLQDCYAALGIVHTKYKHLPNEFDDYVANPKPNGYQSIHTVILGPEGKTIEIQIRTKQMHEESELGVAAHWKYKEGSSAARSGYDEKITWLRKLLDWQEEMSDSGEMLDELRSQVFDDRVYAFTPKGDVVDLPMGATPLDFAYHIHSEVGHRCIGAKVAGRIVPFTHKLQMGDQVEIITAKEPNPSRDWLNPSLGFVHSGRARAKINAWFRKQSREKNLEAGREILEIELAKIGANLKHAEAYALKRFNVNSVDEMYVGIGSGDLRINQIVNHINALVNKPTAEEEDKLALEKLQENKTLTPNRPHKDAVVVEGVDNLMTHLARCCQPIPGDEIRGYITQGRGISVHRSDCEQLEELSLHAPERIIDTVWGSGFVGSYLLTVRVEAMERSGLLKDITTLLANEKVKVASMKSRSDYKRQIIIMDFDLEVNNVEALARVSKRIEQIKDVMLVKRLGEGHHHHHH”: the “soluble on expression in E. coli” value was “not soluble”.
For the sequence “MSLVDDPLIVVNSEKVDKEYAELLMDKYYSKRTLEINSDNEIVVTENIIYNVPALDEFEINDGKGNLLVEFTKSGETVTYKNFEYEEELESDDEGDEVTFMGKTYKLIEYDEDEKIVLGNKVEDTETTEEFSYDAFTFKIIGMDSTGQILVSVYEGSDRIENVKMYPDDTYFVSGSKISIYYDEYMESGDTPYFFFEIYDSLEIEDGETISGYSNIDTDLDGKRINLEYESPKSLSQNFELLNYKVELTDVSDEDLTVFFTVTQNLNYEFDMDEGTKYFGNNIFAVKIENDEDDDSDDESYLYKNNKKYSEIVDYQGSVQLVDQDELLSASSDLILIGGPVSNKVTESIQNSLSVEVTNDYPGEGKGIIQTITNPNNDESTILVLAGSDRDGTKACVLALNQGLYSGSGNLVVKLTGDDSVSVEGHHHHHH”, the “soluble on expression in E. coli” value is given as “not soluble”.
Consider “MSLVEIVNRPYAKAFEAFATARPEVLCLSADLTSSCEVDGFRDRHPEQFLTLGMAEQNMLSFAGGLAMQGFRPFIHTFSVFLYRRPYDQLINSIAYSNRKVRLMGFLPGITTPGGITHQAIEDIAVLRAVPNMTILETGDATEVETVLEVADSIDGPVYVRILRGEVPRLFSTPFEFNKLRTLSEGDDILVVSSGVCTEEALRATGPLAARGVGIHHLHASTLKPFDKDGLLRAARGKKGIVTLENHTIIGGLGSLVSEILAEEGLGIRLKRLGLNDTFAHGASKPYLMKKYGLDAGALVSAIEELVGKNLAIGEEELVEVRLDHVHSAQKAEALEGHHHHHH”, for which the “soluble on expression in E. coli” value is given as “not soluble”.
